In US20060234285A1 (Human Genome Sciences, published 2006):

What was measured:
Assay in all cases: flow cytometry on transiently transfected cells
[1] = target: T1, HveA, on transiently transfected cells (UniProt Q92956 39-283, limits assumed)
T1 construct: whole, on cells
T1 sequence (looked up): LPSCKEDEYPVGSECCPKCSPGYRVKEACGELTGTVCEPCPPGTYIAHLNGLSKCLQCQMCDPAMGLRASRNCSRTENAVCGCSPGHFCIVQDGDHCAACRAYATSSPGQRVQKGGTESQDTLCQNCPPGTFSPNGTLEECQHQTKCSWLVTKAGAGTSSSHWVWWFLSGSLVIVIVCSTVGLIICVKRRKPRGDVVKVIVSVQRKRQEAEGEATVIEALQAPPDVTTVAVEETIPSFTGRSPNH
Experimental: (§1) One million cells, in 0.1 ml of FACS buffer (PBS, 0.1% BSA, 0.1% NaN₃), were incubated with 0.1-1 microgram of protein or antibody at RT for 15 min. The cells were washed with 3 ml of FACS buffer, reacted with biotinylated primary antibody, and stained with PE-conjugated secondary antibody at RT for 15 min. Cells were then washed again, resuspended in 0.5 microgram/ml of propidium iodide, and live cells were gated and analyzed on a FACScan using the CellQuest software (BD Biosciences).

[2] = target: T2, 4-1BB, on transiently transfected cells (UniProt Q07011 24-255)
T2 construct: whole, on cells
T2 sequence (Q07011 24-255): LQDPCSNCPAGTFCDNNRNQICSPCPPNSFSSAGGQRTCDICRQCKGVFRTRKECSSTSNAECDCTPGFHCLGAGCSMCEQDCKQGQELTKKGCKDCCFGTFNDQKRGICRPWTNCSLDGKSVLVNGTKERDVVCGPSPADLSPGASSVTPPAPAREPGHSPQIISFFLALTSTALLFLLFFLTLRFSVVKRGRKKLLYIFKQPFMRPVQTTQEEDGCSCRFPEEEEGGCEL
Experimental: as §1

[3] = target: T3, DR4, on transiently transfected cells (UniProt O00220 24-468, limits assumed)
T3 construct: whole, on cells
T3 sequence (looked up): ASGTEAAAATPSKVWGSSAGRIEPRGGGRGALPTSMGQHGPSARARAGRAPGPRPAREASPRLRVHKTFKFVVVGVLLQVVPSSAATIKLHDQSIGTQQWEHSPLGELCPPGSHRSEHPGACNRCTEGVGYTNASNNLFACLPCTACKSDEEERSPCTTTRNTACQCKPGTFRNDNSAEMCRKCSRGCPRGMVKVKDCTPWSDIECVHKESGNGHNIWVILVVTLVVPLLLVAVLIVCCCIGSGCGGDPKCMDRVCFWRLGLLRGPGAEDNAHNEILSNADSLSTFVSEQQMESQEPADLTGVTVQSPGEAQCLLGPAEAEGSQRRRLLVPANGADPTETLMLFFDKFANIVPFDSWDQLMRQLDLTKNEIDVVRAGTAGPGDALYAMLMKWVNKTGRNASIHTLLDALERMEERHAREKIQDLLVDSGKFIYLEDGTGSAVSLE
Experimental: as §1

[4] = target: T4, BCMA, on transiently transfected cells (UniProt Q02223 1-184, limits assumed)
T4 construct: whole, on cells
T4 sequence (looked up): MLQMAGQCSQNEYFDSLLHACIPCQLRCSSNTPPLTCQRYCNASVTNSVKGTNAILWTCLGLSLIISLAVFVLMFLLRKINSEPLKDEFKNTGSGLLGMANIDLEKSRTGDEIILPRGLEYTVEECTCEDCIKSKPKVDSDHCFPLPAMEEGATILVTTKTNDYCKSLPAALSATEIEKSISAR
Experimental: as §1

[5] = target: T5, DcR1, on transiently transfected cells (UniProt O14798 26-236, limits assumed)
T5 construct: whole, on cells
T5 sequence (looked up): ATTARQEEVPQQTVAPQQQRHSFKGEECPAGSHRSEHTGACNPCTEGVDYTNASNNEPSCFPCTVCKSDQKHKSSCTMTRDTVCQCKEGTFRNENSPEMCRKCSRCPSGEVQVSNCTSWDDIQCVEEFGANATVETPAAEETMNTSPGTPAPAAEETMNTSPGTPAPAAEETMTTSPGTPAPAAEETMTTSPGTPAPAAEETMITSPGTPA
Experimental: as §1

[6] = target: T6, DR5, on transiently transfected cells (UniProt O14763 56-440, limits assumed)
T6 construct: whole, on cells
Experimental: as §1

[7] = target: T7, RANK, on transiently transfected cells (UniProt Q9Y6Q6 30-616, limits assumed)
T7 construct: whole, on cells
T7 sequence (looked up): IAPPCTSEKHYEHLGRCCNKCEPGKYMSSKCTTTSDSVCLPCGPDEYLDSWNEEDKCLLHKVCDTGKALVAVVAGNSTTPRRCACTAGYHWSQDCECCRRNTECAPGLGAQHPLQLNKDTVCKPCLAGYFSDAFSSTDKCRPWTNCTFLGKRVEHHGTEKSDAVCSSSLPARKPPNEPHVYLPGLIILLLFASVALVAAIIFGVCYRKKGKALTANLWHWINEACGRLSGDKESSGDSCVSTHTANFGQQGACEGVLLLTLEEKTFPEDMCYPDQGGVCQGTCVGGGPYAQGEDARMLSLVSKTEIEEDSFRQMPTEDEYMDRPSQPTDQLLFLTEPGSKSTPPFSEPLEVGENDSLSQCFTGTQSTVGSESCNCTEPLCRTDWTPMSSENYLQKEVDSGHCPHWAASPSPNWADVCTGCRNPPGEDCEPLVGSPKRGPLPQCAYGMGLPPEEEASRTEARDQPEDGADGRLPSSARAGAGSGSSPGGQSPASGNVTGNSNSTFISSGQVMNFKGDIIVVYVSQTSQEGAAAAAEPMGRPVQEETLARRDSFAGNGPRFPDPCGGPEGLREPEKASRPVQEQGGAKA
Experimental: as §1

[8] = target: T8, LTβR, on transiently transfected cells (UniProt P36941 31-435)
T8 construct: whole, on cells
T8 sequence (P36941 31-435): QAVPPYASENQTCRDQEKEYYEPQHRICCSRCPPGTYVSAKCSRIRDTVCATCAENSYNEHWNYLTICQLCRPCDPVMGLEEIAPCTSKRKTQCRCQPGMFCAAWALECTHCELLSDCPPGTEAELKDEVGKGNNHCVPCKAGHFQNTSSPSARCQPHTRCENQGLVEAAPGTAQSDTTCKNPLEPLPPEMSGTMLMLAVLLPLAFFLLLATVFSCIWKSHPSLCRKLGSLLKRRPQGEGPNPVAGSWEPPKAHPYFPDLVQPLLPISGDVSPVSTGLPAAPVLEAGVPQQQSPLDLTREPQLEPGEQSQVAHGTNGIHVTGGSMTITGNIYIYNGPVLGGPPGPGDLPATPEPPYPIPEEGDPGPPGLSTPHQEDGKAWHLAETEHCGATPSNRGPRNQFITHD
Experimental: as §1

Measured: binding result

B1: FLAG-tagged soluble form of TNF-gamma-beta (aa 72-251) (ligand, human, UniProt O95150 72-251, looked up, not shown: small tags and cut ends)
chain: LKGQEFAPSHQQVYAPLRADGDKPRAHLTVVRQTPTQHFKNQFPALHWEHELGLAFTKNRMNYTNKFLLIPESGDYFIYSQVTFRGMTSECSEIRQAGRPNKPDSITVVITKVTDSYPEPTQLLMGTKSVCEVGSNWFQPIYLGAMFSLQEGDKLMVNVSDISLVDYTKEDKTFFGAFLL
notes: also called FLAG-TL1β; FLAG-TNF-gamma-beta
no binding: [1] | [2] | [3] | [4] | [5] | [6] | [7] | [8]
